According to patent publication US20220402985A1:
Numbering of substitutions follows the chain as printed. Names may count otherwise. Values belong to the binder of their own block, whether it stands above or below them.

Assays:
[1] = target: ErbB3 on rat Schwann cells (rat) (UniProt Q62799); test: cell-based or functional assay
[2] = target: ErbB4 on neonatal rat cardiomyocytes (rat) (UniProt Q62956); test: cell-based or functional assay
Sequence of ErbB4 on neonatal rat cardiomyocytes (rat) (Q62956 26-1308): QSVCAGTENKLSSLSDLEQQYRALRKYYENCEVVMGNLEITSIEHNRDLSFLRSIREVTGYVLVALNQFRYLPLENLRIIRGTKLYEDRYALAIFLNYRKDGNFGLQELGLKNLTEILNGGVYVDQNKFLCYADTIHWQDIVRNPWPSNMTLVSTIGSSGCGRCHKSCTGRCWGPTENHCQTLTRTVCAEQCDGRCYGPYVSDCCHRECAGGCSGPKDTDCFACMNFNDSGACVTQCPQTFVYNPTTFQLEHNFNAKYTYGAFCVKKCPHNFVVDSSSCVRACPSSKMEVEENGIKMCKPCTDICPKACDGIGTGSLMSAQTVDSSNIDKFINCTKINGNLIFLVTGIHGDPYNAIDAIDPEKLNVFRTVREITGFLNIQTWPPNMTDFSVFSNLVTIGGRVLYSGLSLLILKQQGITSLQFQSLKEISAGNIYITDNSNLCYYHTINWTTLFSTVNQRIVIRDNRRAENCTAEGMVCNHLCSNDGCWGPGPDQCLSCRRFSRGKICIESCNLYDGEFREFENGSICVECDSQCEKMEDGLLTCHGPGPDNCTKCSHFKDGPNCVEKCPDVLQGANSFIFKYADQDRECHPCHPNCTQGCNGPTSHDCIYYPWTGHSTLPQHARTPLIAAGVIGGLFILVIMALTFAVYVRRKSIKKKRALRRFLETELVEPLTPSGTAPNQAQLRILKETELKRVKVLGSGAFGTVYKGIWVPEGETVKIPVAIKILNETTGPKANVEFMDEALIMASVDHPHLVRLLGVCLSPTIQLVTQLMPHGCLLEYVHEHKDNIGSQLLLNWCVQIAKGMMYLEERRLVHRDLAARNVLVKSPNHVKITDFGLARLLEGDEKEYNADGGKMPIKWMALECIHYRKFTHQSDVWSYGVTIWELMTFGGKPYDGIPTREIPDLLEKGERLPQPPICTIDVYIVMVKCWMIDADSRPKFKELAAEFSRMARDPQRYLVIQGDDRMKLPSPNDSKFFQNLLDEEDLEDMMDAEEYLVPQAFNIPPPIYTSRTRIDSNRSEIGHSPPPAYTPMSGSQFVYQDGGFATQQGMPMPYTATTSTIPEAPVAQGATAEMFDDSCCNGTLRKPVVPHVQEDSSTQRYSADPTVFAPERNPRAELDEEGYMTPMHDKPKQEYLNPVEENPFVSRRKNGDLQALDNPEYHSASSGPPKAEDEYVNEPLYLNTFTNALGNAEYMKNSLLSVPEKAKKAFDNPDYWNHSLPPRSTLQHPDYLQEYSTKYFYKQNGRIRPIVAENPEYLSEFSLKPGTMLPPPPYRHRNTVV

Sequence of ErbB3 on rat Schwann cells (rat) (Q62799 20-1339): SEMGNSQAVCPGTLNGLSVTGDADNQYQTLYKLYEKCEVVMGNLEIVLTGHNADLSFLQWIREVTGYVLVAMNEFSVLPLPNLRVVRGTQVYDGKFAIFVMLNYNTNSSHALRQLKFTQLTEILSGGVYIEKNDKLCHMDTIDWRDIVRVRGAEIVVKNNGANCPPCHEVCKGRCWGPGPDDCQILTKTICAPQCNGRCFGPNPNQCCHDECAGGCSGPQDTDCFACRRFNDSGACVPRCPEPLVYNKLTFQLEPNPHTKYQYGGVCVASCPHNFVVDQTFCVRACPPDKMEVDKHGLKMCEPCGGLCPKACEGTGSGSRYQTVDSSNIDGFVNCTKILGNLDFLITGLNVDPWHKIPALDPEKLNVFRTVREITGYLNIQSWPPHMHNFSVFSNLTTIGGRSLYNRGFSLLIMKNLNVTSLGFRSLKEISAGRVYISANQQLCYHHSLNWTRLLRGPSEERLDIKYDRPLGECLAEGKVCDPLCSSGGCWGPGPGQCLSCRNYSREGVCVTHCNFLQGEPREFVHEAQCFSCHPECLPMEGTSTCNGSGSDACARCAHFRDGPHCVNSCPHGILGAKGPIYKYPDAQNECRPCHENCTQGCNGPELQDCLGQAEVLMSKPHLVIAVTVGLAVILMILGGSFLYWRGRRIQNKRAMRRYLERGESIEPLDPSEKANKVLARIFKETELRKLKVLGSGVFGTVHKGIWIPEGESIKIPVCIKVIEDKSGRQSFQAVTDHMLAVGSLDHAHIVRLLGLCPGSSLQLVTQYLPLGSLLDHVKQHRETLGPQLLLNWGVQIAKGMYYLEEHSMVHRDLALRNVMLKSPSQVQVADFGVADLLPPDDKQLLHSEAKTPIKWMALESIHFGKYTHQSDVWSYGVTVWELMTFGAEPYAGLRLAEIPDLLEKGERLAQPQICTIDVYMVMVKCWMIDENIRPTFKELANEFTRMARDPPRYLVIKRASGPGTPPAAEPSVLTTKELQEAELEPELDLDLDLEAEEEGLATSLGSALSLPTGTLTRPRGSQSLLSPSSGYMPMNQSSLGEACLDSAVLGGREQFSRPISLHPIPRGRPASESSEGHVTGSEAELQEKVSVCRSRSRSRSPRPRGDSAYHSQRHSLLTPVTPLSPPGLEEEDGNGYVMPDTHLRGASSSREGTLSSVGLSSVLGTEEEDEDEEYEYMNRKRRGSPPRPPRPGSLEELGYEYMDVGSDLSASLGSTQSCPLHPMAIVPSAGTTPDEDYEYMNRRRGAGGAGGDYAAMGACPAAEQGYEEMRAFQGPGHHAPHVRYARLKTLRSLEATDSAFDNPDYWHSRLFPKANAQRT

B1: huNRG1(S177-F229) 6xHis (ligand)
chain: SHLVKCAEKEKTFCVNGGECFMVKDLSNPSRYLCKCPNEFTGDRCQNYVMASFGGGGEGGGGAGGGGHHHHHH
Schwann cells (SC) (ErbB3) Avg EC50 [1]: 3.62 nM
CM % Agonism AVG [2]: 97.5%
Cardiomyocyte (CM) (ErbB4) Avg EC50 [2]: 0.587 nM
Selectivity SC/CM [2]: 6.17

B4: huNRG1(S177-F229)(NRGE1C) 6xHis (ligand)
chain: SHLVKCGEKHKSFCVNGGECFMIEGPSNPSRYLCKCPNEFTGDRCQEDFMASFGGGGEGGGGAGGGGHHHHHH
Schwann cells (SC) (ErbB3) Avg EC50 [1]: 10000 nM
CM % Agonism AVG [2]: 106%
Cardiomyocyte (CM) (ErbB4) Avg EC50 [2]: 1.44 nM
Selectivity SC/CM [2]: > 10000

B6: huNRG1(S177-F229)(NRGE1C) (E47A_D48P_F49H_M50I) 6xHis (ligand)
chain: B4 chain with E47A, D48P, F49H, M50I
Schwann cells (SC) (ErbB3) Avg EC50 [1]: 10000 nM
CM % Agonism AVG [2]: 96.5%
Cardiomyocyte (CM) (ErbB4) Avg EC50 [2]: 1.1 nM
Selectivity SC/CM [2]: > 10000

B7: huNRG1(S177-F229)(NRGE1C) (E47S_D48A_F49L_M50T) 6xHis (ligand)
chain: B4 chain with E47S, D48A, F49L, M50T
Schwann cells (SC) (ErbB3) Avg EC50 [1]: 10000 nM
CM % Agonism AVG [2]: 85.9%
Cardiomyocyte (CM) (ErbB4) Avg EC50 [2]: 0.695 nM
Selectivity SC/CM [2]: > 10000

B9: huNRG1(S177-F229)(NRGE1C) (D48T_F49Q_M50I) 6xHis (ligand)
chain: B4 chain with D48T, F49Q, M50I
Schwann cells (SC) (ErbB3) Avg EC50 [1]: 10000 nM
CM % Agonism AVG [2]: 106%
Cardiomyocyte (CM) (ErbB4) Avg EC50 [2]: 0.712 nM
Selectivity SC/CM [2]: > 10000

B10: huNRG1(S177-F229)(NRGE1C) (E47K_D48T_F49S_M50L) 6xHis (ligand)
chain: B4 chain with E47K, D48T, F49S, M50L
Schwann cells (SC) (ErbB3) Avg EC50 [1]: 10000 nM
CM % Agonism AVG [2]: 91.8%
Cardiomyocyte (CM) (ErbB4) Avg EC50 [2]: 0.825 nM
Selectivity SC/CM [2]: > 10000

B11: huNRG1(S177-F229)(NRGE1D) 6xHis (ligand)
chain: B4 chain with K9S, F21Y, I23V, P26S, N28I
Schwann cells (SC) (ErbB3) Avg EC50 [1]: 10000 nM
CM % Agonism AVG [2]: 90.7%
Cardiomyocyte (CM) (ErbB4) Avg EC50 [2]: 0.39 nM
Selectivity SC/CM [2]: > 10000

B14: huNRG1(S177-F229)(NRGE1C) (E47S_D48T_F49R_M50V) 6xHis (ligand)
chain: B4 chain with E47S, D48T, F49R, M50V
Schwann cells (SC) (ErbB3) Avg EC50 [1]: 10000 nM
CM % Agonism AVG [2]: 87.5%
Cardiomyocyte (CM) (ErbB4) Avg EC50 [2]: 0.58 nM
Selectivity SC/CM [2]: > 10000

Results, then the binder that gave them:

Schwann cells (SC) (ErbB3) Avg EC50 [1]: 9.11 nM
Cardiomyocyte (CM) (ErbB4) Avg EC50 [2]: 0.133 nM
Selectivity SC/CM [2]: 69
B2: huNRG1(S177-Q237)(1A1)::GG::huFcSEFL2 (Pb) (Fc fusion)
chain: SHLVKCGESEKSFCVNGGECYVIEDSSIPSRFLCKCPNEFTGDRCQNVFLASFYKAEELYQGGDKTHTCPPCPAPELLGGPSVFLFPPKPKDTLMISRTPEVTCVVVDVSHEDPEVKFNWYVDGVEVHNAKTKPCEEQYGSTYRCVSVLTVLHQDWLNGKEYKCKVSNKALPAPIEKTISKAKGQPREPQVYTLPPSREEMTKNQVSLTCLVKGFYPSDIAVEWESNGQPENNYKTTPPVLDSDGSFFLYSKLTVDKSRWQQGNVFSCSVMHEALHNHYTQKSLSLSPGK

Schwann cells (SC) (ErbB3) Avg EC50 [1]: 110 nM
CM % Agonism AVG [2]: < 50%
Cardiomyocyte (CM) (ErbB4) Avg EC50 [2]: 0.3 nM
Selectivity SC/CM [2]: 368
B3: huNRG1(S177-Q237)(2H7)::GG::huFcSEFL2 (Pb) (Fc fusion)
chain: B2 chain with S9K, I23V, S26L, N47K, F49V, L50M

Schwann cells (SC) (ErbB3) Avg EC50 [1]: 10000 nM
CM % Agonism AVG [2]: 98%
Cardiomyocyte (CM) (ErbB4) Avg EC50 [2]: 0.224 nM
Selectivity SC/CM [2]: > 10000
B5: huNRG1(S177-F229)(NRGE1D) (E47V_D48T_F49R_M50L) 6xHis (ligand)
chain: B4 chain with K9S, F21Y, I23V, P26S, N28I, E47V, D48T, F49R, M50L

Schwann cells (SC) (ErbB3) Avg EC50 [1]: 10000 nM
CM % Agonism AVG [2]: 99.8%
Cardiomyocyte (CM) (ErbB4) Avg EC50 [2]: 0.33 nM
Selectivity SC/CM [2]: > 10000
B8: huNRG1(S177-F229)(NRGE1D) (E47T_D48S_F49L_M50L) 6xHis (ligand)
chain: B4 chain with K9S, F21Y, I23V, P26S, N28I, E47T, D48S, F49L, M50L

Schwann cells (SC) (ErbB3) Avg EC50 [1]: 10000 nM
CM % Agonism AVG [2]: 96%
Cardiomyocyte (CM) (ErbB4) Avg EC50 [2]: 0.557 nM
Selectivity SC/CM [2]: > 10000
B12: huNRG1(S177-F229)(NRGE1D) (E47S_D48S_F49E_M50L) 6xHis (ligand)
chain: B4 chain with K9S, F21Y, I23V, P26S, N28I, E47S, D48S, F49E, M50L

Schwann cells (SC) (ErbB3) Avg EC50 [1]: 17.2 nM
CM % Agonism AVG [2]: 91.7%
Cardiomyocyte (CM) (ErbB4) Avg EC50 [2]: 0.311 nM
Selectivity SC/CM [2]: 55.4
B13: huNRG1(S177-F229)(NRGE1D) (E47K_D48L_F49D_M50I) 6xHis (ligand)
chain: B4 chain with K9S, F21Y, I23V, P26S, N28I, E47K, D48L, F49D, M50I

Schwann cells (SC) (ErbB3) Avg EC50 [1]: > 10000 nM
CM % Agonism AVG [2]: 83.4%
Cardiomyocyte (CM) (ErbB4) Avg EC50 [2]: 0.34 nM
Selectivity SC/CM [2]: > 10000
B15: huNRG1(S177-F229)(NRGE1D)::1KmodT482V, M493L)::huFcSEFL2 (Pb) (Fc fusion)
chain: SHLVKCGESHKSFCVNGGECYMVEGSSIPSRYLCKCPNEFTGDRCQEDFMASFGSGSATGGSGSVASSGSGSATHLDKTHTCPPCPAPELLGGPSVFLFPPKPKDTLMISRTPEVTCVVVDVSHEDPEVKFNWYVDGVEVHNAKTKPCEEQYGSTYRCVSVLTVLHQDWLNGKEYKCKVSNKALPAPIEKTISKAKGQPREPQVYTLPPSREEMTKNQVSLTCLVKGFYPSDIAVEWESNGQPENNYKTTPPVLDSDGSFFLYSKLTVDKSRWQQGNVFSCSVMHEALHNHYTQKSLSLSPGK
